# Several values for one entry are separate records, joined by “and”; a condition that tells them apart may be missing. Identical values can stand only once.
# B1: acetylated thioredoxin reductase 1, Nɛ-acetyl-lysine at K141 (acTrxR1^K141) (enzyme, human, UniProt Q16881-4 1-551, looked up)
# chain: MSCEDGRALEGTLSELAAETDLPVVFVKQRKIGGHGPTLKAYQEGRLQKLLKMNGPEDLPKSYDYDLIIIGGGSGGLAAAKEAAQYGKKVMVLDFVTPTPLGTRWGLGGTCVNVGCIPKKLMHQAALLGQALQDSRNYGWKVEETVKHDWDRMIEAVQNHIGSLNWGYRVALREKKVVYENAYGQFIGPHRIKATNNKGKEKIYSAERFLIATGERPRYLGIPGDKEYCISSDDLFSLPYCPGKTLVVGASYVALECAGFLAGIGLDVTVMVRSILLRGFDQDMANKIGEHMEEHGIKFIRQFVPIKVEQIEAGTPGRLRVVAQSTNSEEIIEGEYNTVMLAIGRDACTRKIGLETVGVKINEKTGKIPVTDEEQTNVPYIYAIGDILEDKVELTPVAIQAGRLLAQRLYAGSTVKCDYENVPTTVFTPLEYGACGLSEEKAVEKFGEENIEVYHSYFWPLEWTIPSRDNNKCYAKIICNTKDNERVVGFHVLGPNAGEVTQGFAAALKCGLTKKQLDSTIGIHPVCAEVFTTLSVTKRSGASILQAGCUG
# modifications: Nɛ-acetyl-lysine at 141; selenocysteine (Sec) at 550
# notes: Same construct as m1 but for the acetyl-lysine at 141; source: E. coli BL21 DE3 or E. coli ΔRF1 (C321.ΔA.exp) with acKRS/tRNA^Pyl, purified (Ni-NTA, size-exclusion chromatography)
# B2: wild-type thioredoxin reductase 1 (human TrxR1, isoform 4, Sec550) (enzyme, UniProt Q16881-4 1-551, looked up)
# chain: B1 chain
# modifications: selenocysteine (Sec) at 550
# notes: amplified with a forward primer at the ATG (NdeI) and a reverse primer behind the fdhF SecIS in the 3' UTR; In solution a mixture of monomers, dimers, tetramers and covalently linked dimers; also called WT TrxR1; His6-TrxR1; source: E. coli BL21 DE3 or E. coli ΔRF1 (C321.ΔA.exp), purified (Ni-NTA, size-exclusion chromatography)
# B3: acetylated thioredoxin reductase 1, Nɛ-acetyl-lysine at K307 (acTrxR1^K307) (enzyme, human, UniProt Q16881-4 1-551, looked up)
# chain: B1 chain
# modifications: Nɛ-acetyl-lysine at 307; selenocysteine (Sec) at 550
# notes: Same construct as m1 but for the acetyl-lysine at 307; source: E. coli BL21 DE3 or E. coli ΔRF1 (C321.ΔA.exp) with acKRS/tRNA^Pyl, purified (Ni-NTA, size-exclusion chromatography)
# B4: acetylated thioredoxin reductase 1, Nɛ-acetyl-lysine at K200 (acTrxR1^K200) (enzyme, human, UniProt Q16881-4 1-551, looked up)
# chain: B1 chain
# modifications: Nɛ-acetyl-lysine at 200; selenocysteine (Sec) at 550
# notes: Same construct as m1 but for the acetyl-lysine at 200; source: E. coli BL21 DE3 or E. coli ΔRF1 (C321.ΔA.exp) with acKRS/tRNA^Pyl, purified (Ni-NTA, size-exclusion chromatography)
# Target: the molecule itself
# Experiment: SEC; native size exclusion chromatography, Superdex 200 Increase 10/300 GL, 20 mM sodium phosphate, 150 mM sodium chloride, pH 7.5; 0.5 mL fractions read by anti-His Western blot (densitometry) and DTNB activity; self-association: monomers, dimers, tetramers
row,Protein,stoichiometry N
1,B1,2 and 4
2,B2,2 and 4
3,B3,2 and 4
4,B4,2 and 4

# Target: the molecule itself
# Experiment: cell-based or functional assay
Protein,"9,10-phenanthrequinone assay, relative activity (x-fold, WT TrxR1 = 1), 100 nM TrxR1 [x-fold]","DTNB assay, relative activity (x-fold, WT TrxR1 = 1), 50 nM TrxR1 [x-fold]","insulin linked Trx1 assay, relative activity (x-fold, WT TrxR1 = 1), 200 nM TrxR1 [x-fold]"
B1,1.2,1.8,1.8
B3,1.3,2.7,2
B4,1.4,2.1,1.9
